Earlier results, collected in PMC8232796.
Read-outs that look alike come from different tables or passages of the source. Values belong to the substance of their own block, whether it stands above or below them.

Assays:
[1] = target: HIV-1 Gag p6 peptide p6 (Human immunodeficiency virus 1) (UniProt O93182)
Ubiquitin (Homo sapiens) [2] = target: Ubiquitin (Homo sapiens) (UniProt P0CG48)
Ubiquitin (Homo sapiens) [3] = target: Ubiquitin (Homo sapiens) (UniProt P0CG48); remark: listed apart in the source
Ubiquitin (Homo sapiens) [4] = target: Ubiquitin (Homo sapiens) (UniProt P0CG48); remark: listed apart in the source

Sequence of Tsg101 UEV UEV (Q99816 1-148): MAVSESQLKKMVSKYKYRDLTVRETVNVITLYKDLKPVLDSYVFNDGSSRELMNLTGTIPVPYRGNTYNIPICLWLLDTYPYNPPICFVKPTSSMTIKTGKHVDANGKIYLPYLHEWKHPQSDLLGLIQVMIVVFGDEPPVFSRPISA
Sequence of hMms2 UEV (Q15819 2-145): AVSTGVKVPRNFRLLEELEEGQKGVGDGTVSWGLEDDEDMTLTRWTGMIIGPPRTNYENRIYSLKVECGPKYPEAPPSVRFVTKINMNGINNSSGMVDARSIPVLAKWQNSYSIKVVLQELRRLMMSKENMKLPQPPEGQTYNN
Sequence of UbcH5 (P51668 whole entry): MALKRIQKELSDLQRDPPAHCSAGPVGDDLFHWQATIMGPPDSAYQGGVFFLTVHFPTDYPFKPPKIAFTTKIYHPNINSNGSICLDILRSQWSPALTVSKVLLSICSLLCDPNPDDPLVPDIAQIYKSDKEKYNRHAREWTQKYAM

Substance: Tsg101 UEV UEV (from UniProt Q99816)
Kd [1]: 27 µM
Kd (Ubiquitin (Homo sapiens) [2]): 500 µM

Kd (Ubiquitin (Homo sapiens) [3]): 300 µM
Substance: UbcH5 (from UniProt P51668)

Kd (Ubiquitin (Homo sapiens) [4]): 100 µM
Substance: hMms2 UEV (from UniProt Q15819)
